This note sets out measurements from the DeepSol protein solubility set.

A short description of the data set: soluble on expression in E. coli; label from the status in PepcDB or PDB records.
In the case of “SNAMTKKKVYIVSHSHWDREWYLPYEEHHMRLIELVDNVLDLIENDPEFNSFHLDGQTIILDDYLQVRPEKKEAVKKAVQAGKLKIGPFYILQDDFLISSESNVRNMLIGHLESQKWGAPVQLGYFPDTFGNMGQTPQMMQLANLPAAAFGRGVKPIGFDNQVLESDYSSQYSEMWWEGPDQTKIFGLLFANWYSNGNEIPSEKEAAIAFWKQKLADVERYASTNHLLMMNGVDHQPVQRDITKAIALANELFPEYEFIHSNFDDYLKAVQEELPEDLGTVTGELTSQETDGWYTLANTSSARVYLKQWNTKVQRQLENIAEPLAAMAYEVTGDYPHDQFDYAWKTLLQNHPHDSICGCSVDEVHRGMMTRFENANDVGHFLADEATRQLTEAIDTSVFPEKAHPFVLFNTSGYQKTEVVTVEVEIERLPFYTGKPEDLYHELKQKATPDYQVIDPTGKAVASRIVKEDVRFGYDLPKDAFRQPYMAKYLTVELSVKEMAPFSWDSFALIQGETKAFEGSLLAQPATNEMENEFIQVKIENNGSLTIADKKTGETFSKLLTFEDTGDIGNEYIFFKPTEDQGITTENVTAEITNKENSPVKASYQIKQTVMLPVAADERLEEEQKAVREFRERLAQRSTTLRPFEITTMVTMIKESNQLFFETTINNQIKDHRLRVLFPTGMVTETHEADSIYEVVTRPNQVSDTWENPTNPQHQQAFVNVHDQNKGVTIFNEGLNEYEVLADGTIAVTLIRCVGELGDWGYFATPEAQCQGEYTFKYGLSLHGKPEERFATYQQAYSAQIPFTAATTARHEGKLAPNHVYLTTAEGPIGWTAVKRQEQTNHLVVRGFNLTAQNIPCELHKETQPATCLTNVLEEPLTPAIEVDAPLRPFEIRTWRFEK”, the “soluble on expression in E. coli” value was “soluble”.
The same measure for “MKAEKVRLRKQIIEHMNSLSEEQYTTLSEQIAFSLYAQKEWVEAKTIGITLSMENEVNTYPIIEKAWEEGKKVVVPKCNKGTRTMSFRQINNFDQLETVYMNLREPIPGLTEEVNMDEIDLQIVPGVAYTERGERIGYGGGYYDRYLVHYKGKTLSLAYDFQMVKHIPVEPFDKNIEKIITEKGTLLTNKLVLEHHHHHH”: “soluble”.
Then “MPLTSVTPLCITWNGEKLVAAGYDSTILTAVPKDIVKVKVNDRPIVFDVAPIIGEGRTLVPLRHIFEALGAEVKWDASTRTVTGIKGSDKIILKIDSKEALVNGETKELDVPATIVNGRTLVPVRSISESLGAEVSWDDNSKTVIIKTNF”, with “not soluble”; and “PAGPFTRALWEASGDIIAGINSSDFITMLGDGTLRRPEFDFYIDQDAQYLAQYSRALARLSSIAPDSHAQIEWAQSAAECLVVEAELHRSYMAGKEVSAPSHITMAYTDFLIARTYTEDYVCGVAAVLPCYWLYAEIGLMLAEQNHDEHPYKDWLNTYSGEEFIAGTRAAIARLEKALENAGAEQRVDAARAFLSASVHEREFFDQATRHG”, with “not soluble”.
As for “MSLTQVRQTDSGDSLETARPADLLVLLDSLRQREATLNAEVIDLQNTLNALQASGNTDQAALESAQARLAALSILVGAVGATGPGVMITIDDPGPGVAPEVMIDVINELRAAGAEAIQINDAHRSVRVGVDTWVVGVPGSLTVDTKVLSPPYSILAIGDPPTLAAAMNIPGGAQDGVKRVGGRMVVQQADRVDVTALRQPKQHQYAQPVKEGHHHHHH”, the “soluble on expression in E. coli” value is on record as “soluble”.
The same measure for “MGSDKIHHHHHHMGSSGMGVDANGKPIKRQPTTNNNNKKAGNNSNNQKKGNNQNNKNNKNQNGGNRNQNRQHHQPPMMQMVPPFGPMGPGGPGGPGFMGPPNGNMNFFNGQNRRNGSGKDTMDHRLTMWDKELLEIT”: “not soluble”; for “MGHHHHHHSHMGDSRRDVLHEPAIALLSSPQTQSRLQIDAFIARRCWGSQWDITGYIHQQDFPTAVFIGFSNEFNICIPHPFTEWLQCVRKYSQSWGVRKGQRHIRYGMCSERTHHLSRTYSSLLEREEKLAFYGVLTMCQIWSET”: “not soluble”.
Then “MYPSIKETMRVQLSMEGSVNYHAFKCTGKGEGKPYEGTQSLNITITEGGPLPFAFDILSHAFQYGIKVFAKYPKEIPDFFKQSLPGGFSWERVSTYEDGGVLSATQETSLQGDCIICKVKVLGTNFPANGPVMQKKTCGWEPSTETVIPRDGGLLLRDTPALMLADGGHLSCFMETTYKSKKEVKLPELHFHHLRMEKLNISDDWKTVEQHESVVASYSQVPSKLGHN”, with “soluble”.
The same measure for “MIMKANIFNIQRFSIHDGPGIRTVVFFKGCPLRCPWCSNPESQHRPPQILWDKKKCFYGHLCEVKCPAGCLNFENNNLVFSADNCTGCKSCITQCPGKALTFVGNMMELDEVMEEVLKDMDFYQESKGGVTLSGGEVLVQPDFAAALLKKCKENGIHTALETTAFSTPLVFSKVLANTDLLLLDIKHYNDREHIKYTGVSNQSILENLDFAVTMKVPVVARIPVIPSVNNTIQDAKEFVKLLKEHRVDTVNLLPFHQFGEKKYEELQVPYQLKDVKALRPEDMTEYYNVFKNAGLNVSM”: “not soluble”; for “MSLQQGDRVPAGLTLTNQAGESFRIGDYRGQTLVLTFIYTRCPLPTYCPLMSKQFAALQPQLRERYGEEAQLLSISFDPAYDTPQVLREYASKYTDRLDTWTFATGDSSQVERATGLFGVHAQKTGSEEITHNLTTALIGSEGHVRRLWRGNDWTPEDVRQAVAQVAEASEGHHHHHH”: “soluble”.
For the sequence “FINDVDLIITVEELDSFLEDQLLQLLGKHDISKTVYGKKNNIFPCCGEYSVDIVKTGINKVLDILKIQKIEISEKLIEKTDIIPLPVRPPNLCAGCMHRTVFYAFKEVSKDLKKQNIQIIFSGDIGCYTLGNAPPLELIDTCLCMGAGISLAGGI”, the “soluble on expression in E. coli” value is given as “not soluble”.
Take “MSGNIGANPAIIKLSWIEAAVDAHKTLNFEPSGRKRIGFDVADSGTDKCANVYRHGSVVFWADEWKAKEDELLKSCQRTYQAALEREADIVYDSIGVGASAGAKFSEINADRKSENAYARRVNYQRFNAGAGVHEPDDEYNGIPNKDFFANLKAQAWWLTVSEIRLTPLTTENSILWMS”: the “soluble on expression in E. coli” value is on record as “not soluble”.
Then “MGSDKIHHHHHHMLIISPKYLNGKIEIEKGERVGLVGKNGSGKTTLILSALCLDQTTSNVTVDDLDFCKEKDYSKISAVLQDVSSQILASTLKDEIELMKRFHSVDDKIARNLMGHYYEVEFNKLSDGYKKRYAIASVLASNPEYILLDEPFANLDDKGVKSVSTIVPKNSLIAEHRIEELRKLVDRVYMIRNNKEINEISKEKLFDIEFLRKEGLRGFSLPKINSELGNEILNVNIDNFTIKIREGEILCLLGRNGSGKTTILRKLSKKIFVIFQEVDLQFFYFTVREIVRSKRVLSLFKLENLADKSPYALSFGQKMRILIASAFSSDSRVIGLDEPSVGMDGEALLSFYEMVKMLKEQKRGLILATHDKDIISLCDTRIVID”, with “not soluble”.
Then “MAHHHHHHMLHNDKKNPREALDEEKPRKSNPGEVGTHRKARDTKGNKNKSGEGHITKVEGKADCEPHDVKRKGEKDKVLIQCKELQRKELEALKLIYVKDKELAIQNENDEKRDTIIHMHLNDENISDNVINLTFELPKDYPLKSFLLININVKNFTPDMNNYVNQEVYKDMPNYIAHENSILSIIYRINELVENIQNRKETLVDQSYSSSEEREENAEEEAFDSSKDQLIKDHVTFLYCSGMTYSQHRRVLARRLCYSHHILSLVKRTCIIKWAKELKIGGYSKIGYPGIIICEGPKEEVDFYINSLNKLRWKHFDCRGMDDIILKEYEDLDDARVLPKTMYELDPKGMSTLSNICTECGLRDLFLTSMKIYHS”, with “not soluble”.
As to “MGSDKIHHHHHHMLKPSDKWSWYFSDSEGYLMLNLGDDMLFRTNLSRNLLVDCAFIENPFTVDDASDFQLYKEHIACLPLSEPRKAELALYCVAAKRFHKPVQPKSWFFDVQGTGYTPQQGQLISLRNSLNSGIFIALEVGENATLCAYSDLVSFALNGSKTLEFGQVIKVMHDRMSDVNTLLYTPQMAMVS”, the “soluble on expression in E. coli” value is listed as “not soluble”.
The same measure for “SAEGDAGSDQRQNEEIEAMAAIYGEEWCVIDDCAKIFCIRISDDIDDPKWTLCLQVMLPNEYPGTAPPIYQLNAPWLKGQERADLSNSLEEIYIQNIGESILYLWVEKIRDVLIQKSQMTEPGPDVKKKTEEEDVECEDDLILACQPESSVKALDFDISETRTEVEVEELPPIDHGIPITDRRSTFQAHLAPVVCPKQVKMVLSKLYENKKIASATHNIYAYRIYCEDKQTFLQDCEDDGETAAGGRLLHLMEILNVKNVMVVVSRWYGGILLGPDRFKHINNCARNILVEKNYTNSPEESSKALGKNKKVRKDKKRNEH”: “soluble”; for “MGSDKIHHHHHHMDLFSAMRIFIRVVERGSMSAAARDLGIGQPAVSERIEKLEAHLGTRLLRRNTRNMSLTQSGNVFYERSKTAVQAAEHALSVNEENQGLQGKIRIAAPYSAGESLLMPALLQLQNEHPELQVDVIFNDRVINPVTEGVDLSLRLGDVSEGFFVARPLGTVRRVLLASPALLAKMGHPDTPDALTDYPFAAVSGVFASNRIQLVASEDQLINVPVNIQFQSTHWRSVLSWLLAGHAIGVLQSPVCRKEIADGALIPLLSHYPIPPFSAWLLHPPAGMMSYETRICASLLEGYIRDLLLEPAG”: “not soluble”; for “MAHHHHHHMNRGCLLGEYTGRCLGESAHVRSNLICALCCVTRSQIIYIYIYIYFAVVVEEVPIVTCTNIIMSSVVSRREETHFCLRYFRIPSNKKNVFSLLYRQLLFNSLINHCF”: “not soluble”.
For the sequence “MAEKKKEEKESKETEVFILKLENTTVTFTNPKLGDEVTIASLNLTNPTKDRYAFKIKCTSNQLFKIKSPVGYINPEESLTIPVYHYPATVIPENNKHYFVVYYIKAANTVKEKIPVRDLWKAAASSEGTRRVFIDFKKPELPPTEAEDGKMGDDKKKGKKDDKKEEKDGKKDEKKDGSDEEGKKDEGKGEKKEEKKDDKKDDKKDDKKEEKKEDGAKK”, the “soluble on expression in E. coli” value is recorded as “soluble”.
The same measure for “GSHMAGLPRRIIKETQRLLAEPVPGIKAEPDESNARYFHVVIAGPQDSPFEGGTFKLELFLPEEYPMAAPKVRFMTKIYHPNVDKLGRICLDILKDKWSPALQIRTVLLSIQALLSAPNPDDPLANDVAEQWKTNEAQAIETARAWTRLYAMNNI”: “soluble”; for “MNKKDFLDFLNQNILILDGATGTELQKRGMPGGVCPEMWVIENPDVIMDIQKDYINAGSNAVYTCTFGGNRIKLSEFGLGDKVVEINKKLAQLSRKAAGEKGLVAGDLAPTGRFVRPFGDMPFEEAVDVYKEQVKGLLEGGVDFFVIETMMDIQEARAALLAVKESCDLPVCVSMTFDESGRTLTGTDSVSALIILQSLGADVVGCNCSTGPQDMIKIIREMKPYAKVPLLAKPNAGLPKLIDGKTRFDMEPEEFGSYIKEFVEAGVNLLGGCCGTSPVYIEQIRKNIEGLKPIPPQPKEICAVASARKTVFVDANEPVVVVGERINPTGKKKLQEELRQGMTSLVRQFAVEQVEKGADILDVNVGMPGIDEKETMVKVVELLSSITDAPLCLDSSSPEVLEAALRIYPGRALINSISAEKVKIEKLLPIAAKYGAAFILLPLGDAGVPKSAGERCKIVEEVFNEASKWGYTKKDVIVDGLVMTVSADQEAAVETLKVIEWCTQSFGCGTIVGLSNVSFGMPERAWINSAFLAMAIGYGLTMAILNPSSDTLMSIKMASDVLKVKDRNSKKYIEHFAALKSDKPQVVEKKDTASPVEKVYDAVVKGDRENIRKYIDDALKDGTEPSIIVDKYLIPAITHVGDLYDRKEYFLPQLIQSAETMKEAFGILEPLLKKEPVDEKGNKVKVILATVKGDIHDIGKNIVGLMLRNYGFEVYDLGKDVSAEEIVKKAKETNAPIIGLSALMTTTMLEMREVVSLVRQEGLNAKIMIGGAVVNADYAKEIGADGYSEDAYGAVKLASKLAGI”: “soluble”.
